# Measurements published in article PMC6553876 (PLoS Pathogens, 2019).
# B1: chimpanzee antibody 5H2 (antibody, V domains shown)
# VH: EVQLLESGPGLVKPSETLSLTCTVSGGSISDFYWSWLRQSPGKGLEWIGYAHSRVSAYYNPSLKSRVTISVDTSKNQISLRLSAVTAADTALYYCARQGTGTTGVSEDSFDLWGQGTKVIVSL
# VL: ELQMTQSPSSLSASVGDRVTITCRASQDISIRLNWYQQKPGKAPKLLIYDASTLESGVPSRFSGSGSGTDFTLTISSLQPEDFATYYCQQFNSYPLTFGGGTKVEIK
# notes: also called mAb 5H2
# Target: T1, DEN4-80E (Dengue virus type 4, strain H241 …, UniProt Q58HT7)
# T1 construct: Envelope (E) protein of dengue virus serotype 4, strain H241, truncated form: 80% of the N-terminal of the E protein; also called DEN-80E of DENV4; truncated envelope protein of DENV4; source: recombinant E protein, component of the tetravalent dengue subunit vaccine V180 (Merck and Co. Inc.)
# Assay: BLI; Octet RED96 epitope binning: first mAb (30 ug/ml) captured on protein A sensor for 600 s, blocking antibody (200 ug/ml) 300 s, DEN4-80E loaded at 30 ug/ml for 300 s, then second mAb (d462, 5H2, d559, d182)
# Conditions: both partners purified
# T1 sequence (Q58HT7 whole entry, looked up, the tested form may be a part): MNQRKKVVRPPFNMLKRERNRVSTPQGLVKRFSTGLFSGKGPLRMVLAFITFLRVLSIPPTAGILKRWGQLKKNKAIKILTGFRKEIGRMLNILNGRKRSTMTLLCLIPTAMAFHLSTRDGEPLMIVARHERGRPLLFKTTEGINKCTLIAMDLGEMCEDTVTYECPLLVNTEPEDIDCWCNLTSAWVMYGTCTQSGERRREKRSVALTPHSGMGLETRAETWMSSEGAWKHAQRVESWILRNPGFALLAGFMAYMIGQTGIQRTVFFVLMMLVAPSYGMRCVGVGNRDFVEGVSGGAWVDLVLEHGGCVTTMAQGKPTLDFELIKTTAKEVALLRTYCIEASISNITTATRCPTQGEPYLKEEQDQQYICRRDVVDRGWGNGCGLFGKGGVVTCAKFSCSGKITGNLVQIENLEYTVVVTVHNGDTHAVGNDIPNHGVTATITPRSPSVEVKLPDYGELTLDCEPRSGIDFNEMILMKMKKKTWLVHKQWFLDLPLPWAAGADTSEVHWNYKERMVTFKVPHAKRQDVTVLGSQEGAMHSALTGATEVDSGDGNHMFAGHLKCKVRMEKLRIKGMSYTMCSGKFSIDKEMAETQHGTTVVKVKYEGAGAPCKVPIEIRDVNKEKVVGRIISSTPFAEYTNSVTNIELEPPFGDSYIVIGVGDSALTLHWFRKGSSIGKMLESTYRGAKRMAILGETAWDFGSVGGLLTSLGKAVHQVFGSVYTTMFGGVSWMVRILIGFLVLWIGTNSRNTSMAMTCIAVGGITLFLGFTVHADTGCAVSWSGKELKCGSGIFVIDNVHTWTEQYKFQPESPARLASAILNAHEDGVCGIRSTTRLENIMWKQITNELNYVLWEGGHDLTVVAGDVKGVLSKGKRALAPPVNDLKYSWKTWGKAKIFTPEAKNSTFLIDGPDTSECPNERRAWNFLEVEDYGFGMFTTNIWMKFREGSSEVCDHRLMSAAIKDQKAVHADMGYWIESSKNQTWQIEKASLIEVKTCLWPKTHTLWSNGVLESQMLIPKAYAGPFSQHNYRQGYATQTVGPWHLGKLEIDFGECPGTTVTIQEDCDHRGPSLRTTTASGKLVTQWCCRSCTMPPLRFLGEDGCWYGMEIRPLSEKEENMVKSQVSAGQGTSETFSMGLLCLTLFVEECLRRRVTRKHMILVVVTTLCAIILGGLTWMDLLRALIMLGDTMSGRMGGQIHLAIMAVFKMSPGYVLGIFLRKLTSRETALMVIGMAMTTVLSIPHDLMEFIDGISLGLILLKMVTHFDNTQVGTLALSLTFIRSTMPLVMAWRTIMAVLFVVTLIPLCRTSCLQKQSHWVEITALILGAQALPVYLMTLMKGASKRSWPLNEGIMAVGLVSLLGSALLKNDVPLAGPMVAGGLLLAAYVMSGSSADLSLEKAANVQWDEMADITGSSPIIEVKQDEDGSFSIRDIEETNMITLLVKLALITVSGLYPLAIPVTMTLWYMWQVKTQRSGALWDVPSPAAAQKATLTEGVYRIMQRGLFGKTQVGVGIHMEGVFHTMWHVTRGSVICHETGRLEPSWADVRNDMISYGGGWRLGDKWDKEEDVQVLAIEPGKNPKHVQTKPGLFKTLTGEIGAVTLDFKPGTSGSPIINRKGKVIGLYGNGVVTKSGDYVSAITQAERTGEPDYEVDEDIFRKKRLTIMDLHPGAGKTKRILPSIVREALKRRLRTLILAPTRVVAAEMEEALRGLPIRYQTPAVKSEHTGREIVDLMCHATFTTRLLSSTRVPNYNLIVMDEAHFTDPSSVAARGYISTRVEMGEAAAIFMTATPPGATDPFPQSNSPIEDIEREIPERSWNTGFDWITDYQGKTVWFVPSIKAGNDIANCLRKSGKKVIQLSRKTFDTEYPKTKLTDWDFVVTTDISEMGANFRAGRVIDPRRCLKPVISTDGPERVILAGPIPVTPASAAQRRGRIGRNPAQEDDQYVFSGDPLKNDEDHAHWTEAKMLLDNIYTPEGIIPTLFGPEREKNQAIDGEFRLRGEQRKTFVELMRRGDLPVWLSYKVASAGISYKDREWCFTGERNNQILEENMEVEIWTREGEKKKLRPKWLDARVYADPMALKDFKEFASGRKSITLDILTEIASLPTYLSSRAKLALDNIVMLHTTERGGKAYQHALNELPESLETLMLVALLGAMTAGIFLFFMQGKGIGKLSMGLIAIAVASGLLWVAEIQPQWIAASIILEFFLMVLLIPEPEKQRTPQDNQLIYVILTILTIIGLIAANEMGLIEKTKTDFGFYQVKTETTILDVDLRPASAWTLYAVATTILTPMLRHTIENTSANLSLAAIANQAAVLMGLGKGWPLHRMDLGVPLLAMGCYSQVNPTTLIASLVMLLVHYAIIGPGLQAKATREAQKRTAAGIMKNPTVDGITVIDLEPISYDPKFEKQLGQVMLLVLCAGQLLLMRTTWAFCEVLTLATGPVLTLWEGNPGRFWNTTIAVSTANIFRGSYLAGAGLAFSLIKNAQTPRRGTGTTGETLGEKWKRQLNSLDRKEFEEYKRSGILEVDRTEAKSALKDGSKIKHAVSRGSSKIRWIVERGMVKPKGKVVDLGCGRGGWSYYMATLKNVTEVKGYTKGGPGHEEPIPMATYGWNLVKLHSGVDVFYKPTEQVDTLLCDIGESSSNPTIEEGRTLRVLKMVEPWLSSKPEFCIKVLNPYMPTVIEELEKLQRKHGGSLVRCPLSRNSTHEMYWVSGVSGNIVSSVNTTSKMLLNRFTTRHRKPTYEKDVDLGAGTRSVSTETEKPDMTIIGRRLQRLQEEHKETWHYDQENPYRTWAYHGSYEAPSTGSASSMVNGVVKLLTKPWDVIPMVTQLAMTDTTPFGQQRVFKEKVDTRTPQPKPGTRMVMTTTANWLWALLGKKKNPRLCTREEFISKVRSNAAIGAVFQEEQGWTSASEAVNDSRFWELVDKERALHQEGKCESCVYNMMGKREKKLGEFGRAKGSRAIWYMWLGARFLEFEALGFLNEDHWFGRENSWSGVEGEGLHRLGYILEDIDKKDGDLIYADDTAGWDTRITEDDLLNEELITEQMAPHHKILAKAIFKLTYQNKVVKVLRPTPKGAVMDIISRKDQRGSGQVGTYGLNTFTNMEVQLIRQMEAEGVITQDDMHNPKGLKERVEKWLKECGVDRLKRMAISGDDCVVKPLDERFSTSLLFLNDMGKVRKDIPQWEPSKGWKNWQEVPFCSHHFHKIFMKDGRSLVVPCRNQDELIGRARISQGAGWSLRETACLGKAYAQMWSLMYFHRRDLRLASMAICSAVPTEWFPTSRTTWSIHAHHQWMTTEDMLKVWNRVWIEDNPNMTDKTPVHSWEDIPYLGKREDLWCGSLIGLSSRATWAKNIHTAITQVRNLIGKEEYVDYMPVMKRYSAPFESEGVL
binder,measurement,value
B1,binding result,binds
